The chains are these.
B1: LLB1-3-16-2 (Fc fusion)
chain: APELLGGPSVFLFPPKPKDTLMISRTPEVTCVVVDVSHEDPEVKFNWYVDGVEVHNAKTKPREEQYNSTYRVVSVLTVLHQDWLNGKEYKCKVSNKALPAPIEKTISKAKGQPREPQVYTLPPSRDELTKNQVSLTCLVKGFYPSDIAVEWRTYKPYETNYKTTPPVLDSDGSFFLYSKLTVDKSRWQQGDIFVCDVMHEALHNHFTIKKLSLSPGK
B2: LLB1-3-25-2 (Fc fusion)
chain: B1 chain
notes: a difference, if any, lies outside the printed positions
B3: LLB1-3-16 (Fc fusion)
chain: B1 chain with M198L
notes: also called Clone 1-3-16; LLB1-1-3-16
B4: LLB1-3-25-1 (Fc fusion)
chain: B1 chain with M198L
notes: as for B2
B5: LLB1-3-10-1 (Fc fusion)
chain: B1 chain with T153S, T159N, D191N, M198L, F206Y
B6: LLB1-3 D380E (Fc fusion)
chain: B1 chain with T153S, T159N, D191N, F206Y
B7: LLB1-3-31-2 (Fc fusion)
chain: B1 chain with K210S
B8: LLB1-3-14-1 (Fc fusion)
chain: B1 chain with T153S, T159N, M198L, F206Y
B9: LLB1-3-4-1 (Fc fusion)
chain: B1 chain with T159N, D191N, F206Y
B10: 42.2.3.5 mono (Fc fusion)
chain 1: APEAAGGPSVFLFPPKPKDTLMISRTPEVTCVVVDVSHEDPEVKFNWYVDGVEVHNAKTKPREEQYNSTYRVVSVLTVLHQDWLNGKEYKCKVSNKALGAPIEKTISKAKGQPREPQVYTLPPSRDELTKNQVSLWCLVKGFYPSDIAVEWFYGNGKETNYKTTPPVLDSDGSFFLYSKLTVDKSRWQQGNLFACEVMHEALHNHYTYKLLSLSPGK
chain 2: APEAAGGPSVFLFPPKPKDTLMISRTPEVTCVVVDVSHEDPEVKFNWYVDGVEVHNAKTKPREEQYNSTYRVVSVLTVLHQDWLNGKEYKCKVSNKALGAPIEKTISKAKGQPREPQVYTLPPSRDELTKNQVSLSCAVKGFYPSDIAVEWESNGQPENNYKTTPPVLDSDGSFFLVSKLTVDKSRWQQGNVFSCSVMHEALHNHYTQKSLSLSPGK
notes: knob+P329G+LALA with TfR site, hole+P329G+LALA without
B11: 42.2.5.4 mono (Fc fusion)
chain 1: B10 chain 1 with Y153S, G154D, N155G, G156S, G190Q, N191G, S212G, L213Y
chain 2: B10 chain 2
notes: as for B10
B12: 42.2.7.2 mono (Fc fusion)
chain 1: B10 chain 1 with Y153S, G154D, N155G, G156S, H203E, N204G
chain 2: B10 chain 2
notes: M428 kept here
B13: 42.2.5.2 mono (Fc fusion)
chain 1: B10 chain 1 with Y153S, G154D, N155G, G156S, Q189P, G190R, N191G, S212G, L213E
chain 2: B10 chain 2
notes: as for B10
B14: 42.2.19 mono (Fc fusion)
chain 1: B10 chain 1 with G154D, N155D, G156S, E158L, Q189P, G190R, N191G, S212G, L213E
chain 2: B10 chain 2
notes: as for B10
B15: Clone 33: LLB2-10-8-d6 bivalent, non-binding Fabs (Fc fusion)
chain: APELLGGPSVFLFPPKPKDTLMISRTPEVTCVVVDVSHEDPEVKFNWYVDGVEVHNAKTKPREEQYNSTYRVVSVLTVLHQDWLNGKEYKCKVSNKALPAPIEKTISKAKGQPREPQVYTLPPSRDELTKNQVSLTCLVKGFYPSDIAVLWNSRFVLENNYKTTPPVLDSDGSFFLYSKLTVDKSRWQQGNVFACNVYHEALHNHYTFKNLALSPGK
notes: bivalent; effector positive
B16: Clone 38: LLB2-10-8-d6 bivalent, non-binding Fabs, effector negative (Fc fusion)
chain: B15 chain with L4A, L5A, P99G
B17: Clone 36: LLB2-10-8 bivalent, non-binding Fabs, effector negative (Fc fusion)
chain: B15 chain with L4A, L5A, P99G, N191E, V192I

Where a chain is given by its changes, count along the chain named. Numbers in names are those of the source.

In one test the target is T1, human CD98hc (human, UniProt P08195 109-529).
T1 construct: The construct used on the Biacore is not described; also called CD98 heavy chain; 4F2 heavy chain
T1 sequence: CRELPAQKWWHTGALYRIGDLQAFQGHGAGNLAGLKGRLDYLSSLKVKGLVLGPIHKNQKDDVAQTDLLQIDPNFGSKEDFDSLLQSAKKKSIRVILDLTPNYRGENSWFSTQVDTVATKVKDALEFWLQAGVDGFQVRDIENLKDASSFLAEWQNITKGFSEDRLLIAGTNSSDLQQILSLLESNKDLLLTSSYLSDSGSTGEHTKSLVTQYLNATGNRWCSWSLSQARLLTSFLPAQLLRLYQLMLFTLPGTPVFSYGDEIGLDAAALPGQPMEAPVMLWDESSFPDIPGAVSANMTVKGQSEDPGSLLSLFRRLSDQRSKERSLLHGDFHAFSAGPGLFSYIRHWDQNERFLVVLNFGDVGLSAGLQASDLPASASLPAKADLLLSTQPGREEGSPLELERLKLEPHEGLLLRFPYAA
Briefly: SPR (Biacore); format not stated. The protocol:
A second round of affinity maturation using phage display was performed to increase the affinity of the LLB1 family to CD98hc (Table 11). The backbone of the library was the clone LLB1-3. Library LLB1-AM3 expands the library positions from the original clone using NHK or ARY. Library LLB1-AM4 expands the libraries and includes a mixture of residues that were found previously at those positions in the LLB1 family. The library was assembled using Kunkel mutagenesis and screened to human CD98hc. […] The format was anti-BACE1 Fabs having full effector function and in a bivalent format (i.e., no knob and hole mutations). Cell binding of the clones was also tested in HeLa cells for huCD98hc binding, CHO:cyCD98hc cells for cyno binding, and CHO cells as a negative control.
A general note: Surface plasmon resonance follows binding to a sensor surface in real time, without labels.
On to B1, for which the dissociation constant Kd – broadly, the equilibrium constant for the complex coming apart – turned out to be 175 nM.
For B2, the affinity, expressed as Kd, was 160 nM. This Kd and that of the molecule before are within 1.5-fold of each other.
In the case of B3, the dissociation constant Kd turned out to be 32 nM.
The molecule B4 registered a dissociation constant Kd of 42 nM.
Same read-out and setting: for B5 the value was 470 nM.
Regarding B6, the equilibrium dissociation constant (Kd) turned out to be 1000 nM.
Regarding B7, binding was characterised by a dissociation constant (Kd) of 1200 nM.
On to B8, for which binding was characterised by a dissociation constant (Kd) of 330 nM. This Kd is about 3.6-fold lower than that of the molecule before.
B9 had a Kd of 880 nM.

For a further test, the target named is T2, circularly permuted human TfR apical domain (human).
T2 construct: TfR residues 326-379 stand N-terminal to 194-296, loop 297-325 deleted; also called huTfR Apical Domain
T2 chain: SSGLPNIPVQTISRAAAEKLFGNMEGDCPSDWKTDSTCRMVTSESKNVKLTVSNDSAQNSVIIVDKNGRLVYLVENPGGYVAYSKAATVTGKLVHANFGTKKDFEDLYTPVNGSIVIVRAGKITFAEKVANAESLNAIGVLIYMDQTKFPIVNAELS
Briefly: method not named for this table (Biacore elsewhere).
Molecule B10 gave a Kd of 260 nM.
Still for that read-out and setting: for B11 the value was 400 nM; for B12, 162 nM.
Take B13: the Kd was determined as 180 nM.
Consider B14, for which the Kd worked out at 79 nM. This Kd lies about 2.3-fold lower than the previous one.

A further test addresses T3, circularly permuted cyno TfR apical domain (cynomolgus monkey).
T3 construct: same design as the human construct; also called cyTfR Apical Domain; cynomolgus TfR apical domain
T3 chain: T2 chain with R39K, S45N, N47S, R69G, Y108D, T109S, N153K, E155D
Described as above.
B10 returned a Kd of 1800 nM. In other words, the single-digit micromolar range.
Consider B11, for which the dissociation constant Kd was determined as 6500 nM.
B12 returned a dissociation constant Kd of 10000 nM.
B13 came in with a dissociation constant (Kd) of 2000 nM.
Consider B14, for which the affinity, expressed as Kd, was 1100 nM. This Kd is about 1.8-fold lower than that of the molecule before.

A further test addresses T4, human CD98hc (human, UniProt P08195 109-529).
T4 construct: also called huCD98hc; CD98 heavy chain
T4 sequence: T1 sequence
Briefly: affinity as listed in study design table; method not given there.
In turn, B15 showed a dissociation constant (Kd) of 550 nM.
Molecule B16 came in with a Kd of 550 nM.
In the case of B17, the Kd fell in the range of 100 to 200 nM.
